Data as given in publication PMC6760140.

Target: Recombinant His-tagged Pfs25, P13829
Assay: BLI
Settings: chain shown with the change; immobilized Pfs25 and mutant Fab analyte; parent: est. 4.6; read off a plot

Binder	Kd [nM]
2544 Fab κC:P94T (protein) chain 1: EVQLVESGGGLVQPGGSLRLSCVASGFTFSNYNMNWVRQAPGKGLEWLSYISSSSGTIYYADSVKGRFTISRDNAKNSMYLQMNSLRAEDTAVYYCVRVEYYYGSSGYYYDFDSWGQGTLVTVSS chain 2: DIVMTQSPLSLPVTPGEPASISCRSSQSLLHNGYNYLDWYLQKPGQSPQLLIYLGSNRASGVPDRFSGSGSGTDFTLKISRVEAEDVGVYYCMQTLQTFTFGQGTRLEIK	14
2544 Fab HC:G55S (protein) chain 1: EVQLVESGGGLVQPGGSLRLSCVASGFTFSNYNMNWVRQAPGKGLEWLSYISSSSSTIYYADSVKGRFTISRDNAKNSMYLQMNSLRAEDTAVYYCVRVEYYYGSSGYYYDFDSWGQGTLVTVSS chain 2: DIVMTQSPLSLPVTPGEPASISCRSSQSLLHNGYNYLDWYLQKPGQSPQLLIYLGSNRASGVPDRFSGSGSGTDFTLKISRVEAEDVGVYYCMQTLQPFTFGQGTRLEIK	14
2544 Fab κC:F95P (protein) chain 1: EVQLVESGGGLVQPGGSLRLSCVASGFTFSNYNMNWVRQAPGKGLEWLSYISSSSGTIYYADSVKGRFTISRDNAKNSMYLQMNSLRAEDTAVYYCVRVEYYYGSSGYYYDFDSWGQGTLVTVSS chain 2: DIVMTQSPLSLPVTPGEPASISCRSSQSLLHNGYNYLDWYLQKPGQSPQLLIYLGSNRASGVPDRFSGSGSGTDFTLKISRVEAEDVGVYYCMQTLQPPTFGQGTRLEIK	22000
2544 Fab κC:T91A (protein) chain 1: EVQLVESGGGLVQPGGSLRLSCVASGFTFSNYNMNWVRQAPGKGLEWLSYISSSSGTIYYADSVKGRFTISRDNAKNSMYLQMNSLRAEDTAVYYCVRVEYYYGSSGYYYDFDSWGQGTLVTVSS chain 2: DIVMTQSPLSLPVTPGEPASISCRSSQSLLHNGYNYLDWYLQKPGQSPQLLIYLGSNRASGVPDRFSGSGSGTDFTLKISRVEAEDVGVYYCMQALQPFTFGQGTRLEIK	12
2544 Fab HC:D100GY (protein) chain 1: EVQLVESGGGLVQPGGSLRLSCVASGFTFSNYNMNWVRQAPGKGLEWLSYISSSSGTIYYADSVKGRFTISRDNAKNSMYLQMNSLRAEDTAVYYCVRVEYYYGSSGYYYYFDSWGQGTLVTVSS chain 2: DIVMTQSPLSLPVTPGEPASISCRSSQSLLHNGYNYLDWYLQKPGQSPQLLIYLGSNRASGVPDRFSGSGSGTDFTLKISRVEAEDVGVYYCMQTLQPFTFGQGTRLEIK	18
